Measured values published in patent EP0980426B1 (Genentech, Inc., dated 2004).

T1: PSTPIP, full-length, with a C-terminal FLAG epitope (murine, UniProt P97814 1-415)
T1 construct: In vitro transcribed/translated or expressed in COS cells from pRK.PIP.FLAG.C
T1 sequence: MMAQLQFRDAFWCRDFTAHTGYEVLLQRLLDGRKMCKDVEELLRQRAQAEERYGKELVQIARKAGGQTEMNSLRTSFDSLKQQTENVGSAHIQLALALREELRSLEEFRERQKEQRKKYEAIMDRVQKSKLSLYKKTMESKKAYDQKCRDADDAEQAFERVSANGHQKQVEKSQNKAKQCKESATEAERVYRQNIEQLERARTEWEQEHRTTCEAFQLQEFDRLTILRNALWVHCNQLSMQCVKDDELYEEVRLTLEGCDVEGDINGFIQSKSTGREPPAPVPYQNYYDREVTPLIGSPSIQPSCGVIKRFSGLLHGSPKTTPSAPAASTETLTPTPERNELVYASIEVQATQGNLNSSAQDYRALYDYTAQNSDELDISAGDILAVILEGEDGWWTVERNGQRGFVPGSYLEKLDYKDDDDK

B1: PXXP-HSCF peptide, 432GFNLRIGRPKGPRDPPAEWT451 (PTP HSCF) (peptide)
peptide: GFNLRIGRPKGPRDPPAEWT
notes: Synthetic peptide; also called C-terminally derived PTP HSCF peptide; peptide derived from the C-terminus of PTP HSCF

target: T1, PSTPIP, full-length, with a C-terminal …; assay: peptide competition of GST-PST-rich+CTH PTP HSCF pull-down of in vitro translated PSTPIP

Lowest concentration that blocks the interaction, ~800 nM:
B1
GFGNRCGKPKGPRDPPSEWT (Synthetic peptide) [PXXP-PEST peptide, 761GFGNRCGKPKGPRDPPSEWT780 (PTP PEST)]
GFGNRFSKPKGPRNPPSAW (Synthetic peptide) [PXXP-PEP peptide, 782GFGNRFSKPKGPRNPPSAW800 (PTP PEP)]
